One assay has as its target biotinylated ovalbumin (UniProt P01012). The assay is described as follows: SPR; ProteOn XPR36; OVA-biot covalently immobilised on a GLC chip (sulfo-NHS/EDC); EDAvidin in 2-fold dilutions from 100 nM, then (after regeneration with 2 μM biotin) streptavidin; PBS, 0.005% Tween 20, pH 7.4; 30 μL/min; referenced against nonbiotinylated OVA; Langmuir model. On the technique in general: In SPR one partner is held on a chip, and binding of the other changes the refractive index at the surface.

The target in assay [1] is EDAvidin (fusion protein between the extra domain A from fibronectin and streptavidin). The assay is described as follows: SDS-PAGE of the sample not boiled against boiled; purified EDAvidin, nondenatured against denatured (boiled), Coomassie blue.

Sequence of UniProt P01012 (P01012 whole entry): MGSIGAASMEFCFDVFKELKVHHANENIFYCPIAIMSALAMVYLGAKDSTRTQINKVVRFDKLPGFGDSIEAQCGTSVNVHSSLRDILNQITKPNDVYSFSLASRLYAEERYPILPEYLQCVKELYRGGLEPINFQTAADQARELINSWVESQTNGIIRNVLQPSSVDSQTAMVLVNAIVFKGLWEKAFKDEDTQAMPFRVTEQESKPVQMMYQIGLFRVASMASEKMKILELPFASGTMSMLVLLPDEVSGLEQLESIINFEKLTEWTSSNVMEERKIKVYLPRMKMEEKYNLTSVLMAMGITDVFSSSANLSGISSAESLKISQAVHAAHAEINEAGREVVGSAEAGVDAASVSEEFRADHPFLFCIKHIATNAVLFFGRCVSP

For “EDAvidin (fusion protein between the extra domain A from fibronectin and streptavidin)”, in the assay with biotinylated ovalbumin, the Kd stood at 0.023 pM. This substance also showed a stoichiometry N in assay [1] of 4.

The term Kd denotes a measure of binding affinity in units of concentration. Low readings indicate higher affinity, high ones lower affinity. By stoichiometry N is commonly meant the number of molecules, sites or subunits per partner or assembly.
